In the supplement of paper PMC10126150:
± gives the standard deviation of the averaged measurements.

Tested on: ATP
Test: switch fluorescence ratio, 500 uM ATP over buffer (Cy3 cluster intensity, sum of 5 cycles each) (fold (ratio)); higher = stronger signal-on switching upon ATP binding; sequences stand for … in TCGTCGGCAGCGTCAGATGTGTATAAGAGACAGTTTTTTTTTTTTTTTTTTTTTTTTT…TC
Details: aptamer strand: ATP DNA aptamer (quencher-CACCTGGGGGAGTATTGCGGAGGAAGG + anchor), 100 nM annealed; ATP concentration: 500 uM
Summary of the method: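 The quencher-labelled ATP aptamer, at 100 nM, was annealed to Cy3-labelled switching-strand clusters on a modified Illumina MiSeq flow-cell. The clusters were imaged in selection buffer, then after 15 min with 500 uM ATP at 22 °C, and this buffer/ATP cycle ran five times with NaOH stripping and re-annealing between runs. Per-cluster fluorescence ratios, summed target-cycle over summed buffer-cycle Cy3 intensity, were averaged per switch-domain sequence. Clusters outside 100-1000 RFU were excluded.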
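Also: ATP exposure 15 min at 22 °C before imaging.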

Sequence | switch fluorescence ratio
TTATGTTAAA | 1.01 ± 0.022
TTATGTTTGG | 1.02 ± 0.033
TTATGTTTTT | 1.01 ± 0.025
TTATTAAGGG | 0.98 ± 0.047
TTATTAATAC | 1.177 ± 0.0012
TTATTACGTG | 1.01 ± 0.023
TTATTAGCTT | 0.9916 ± 0.004
TTATTAGTAG | 1.002 ± 0.0049
TTATTAGTGC | 1.03 ± 0.1
TTATTAGTTT | 0.994 ± 0.017
TTATTATACG | 1.01 ± 0.054
TTATTATTGA | 0.989 ± 0.011
TTATTCGGCG | 1 ± 0.032
TTATTGATCC | 0.9978 ± 0.0019
TTATTGGCGG | 1.015 ± 0.0097
TTATTGGTTT | 1.048 ± 0.0096
TTATTGTTGA | 1.02 ± 0.011
TTATTTATTA | 1.0338 ± 0.00047
TTATTTCAAC | 0.9728 ± 0.0052
TTATTTGACT | 1.01 ± 0.041
TTATTTGATT | 1.01 ± 0.029
TTATTTGCCT | 1.17 ± 0.18
TTATTTGCTG | 1.02 ± 0.056
TTATTTGGCC | 0.997 ± 0.032
TTATTTGTGG | 0.97 ± 0.02

Sequence | switch fluorescence ratio
TTATTTGTTT | 0.977 ± 0.018
TTATTTTAAA | 1.01 ± 0.024
TTATTTTCAC | 1.04 ± 0.036
TTATTTTGGT | 1.01 ± 0.035
TTATTTTGTA | 1.03 ± 0.013
TTCAAACGAG | 1.01 ± 0.031
TTCAAAGTTT | 0.993 ± 0.015
TTCAAATGGG | 0.9991 ± 0.0053
TTCAACTTAT | 0.954 ± 0.049
TTCAAGCGTT | 0.982 ± 0.019
TTCAAGCTTT | 1.01 ± 0.022
TTCAAGGATA | 0.986 ± 0.05
TTCAAGTGAA | 0.979 ± 0.012
TTCAAGTTAT | 1.04 ± 0.045
TTCAAGTTGG | 0.974 ± 0.024
TTCAATAGGA | 1.03 ± 0.045
TTCAATGGCA | 1.0245 ± 0.00028
TTCAATTTGG | 1.01 ± 0.021
TTCACAAGG | 1.0218 ± 0.00034
TTCACGGCCC | 1.04 ± 0.013
TTCACGGGAT | 1.06 ± 0.035
TTCACGGGTT | 1.01 ± 0.021
TTCACGGTCG | 1.03 ± 0.024
TTCACTATTT | 1.02 ± 0.028
TTCAGCTTTT | 0.984 ± 0.037

Sequence | switch fluorescence ratio
TTCAGGATA | 1.01 ± 0.033
TTCAGGGGGG | 1.02 ± 0.033
TTCAGGGTCC | 1.03 ± 0.035
TTCAGTGGTG | 0.965 ± 0.053
TTCAGTGTTA | 1.017 ± 0.0058
TTCAGTTCGA | 0.9971 ± 0.0057
TTCAGTTGGT | 0.987 ± 0.017
TTCATAGCTT | 1.02 ± 0.043
TTCATATGCG | 0.995 ± 0.016
TTCATATTAT | 0.9472 ± 0.0062
TTCATATTGT | 0.955 ± 0.024
TTCATCCGTA | 1.39 ± 0.23
TTCATCGTCT | 1.01 ± 0.042
TTCATGCCTG | 1.12 ± 0.092
TTCATGGGAG | 0.99 ± 0.022
TTCATGGGG | 0.9879 ± 0.0094
TTCATGTGTT | 1.04 ± 0.037
TTCATTCATG | 0.97 ± 0.0033
TTCATTGTTT | 1.01 ± 0.02
TTCATTTTTT | 1.02 ± 0.041
TTCCAAGACA | 1.01 ± 0.026
TTCCAATAAG | 1.01 ± 0.02
TTCCAATAGG | 1.13 ± 0.21
TTCCACGTAT | 1.18 ± 0.046
TTCCACGTTT | 1.11 ± 0.12

Sequence | switch fluorescence ratio
TTCCAGGGCA | 1.02 ± 0.022
TTCCAGTTT | 1 ± 0.04
TTCCATAGGG | 0.987 ± 0.022
TTCCATCACA | 1.01 ± 0.021
TTCCCATGGG | 1.02 ± 0.027
TTCCCGGGTG | 1.53 ± 0.55
TTCCCTTATG | 0.976 ± 0.017
TTCCCTTTTG | 1.02 ± 0.0057
TTCCGAAAAT | 1.01 ± 0.046
TTCCGAGTTT | 1.15 ± 0.19
TTCCGCACGT | 2.64 ± 1.3
TTCCGGAGAT | 1.43 ± 0.34
TTCCGGCTCT | 1.61 ± 0.8
TTCCGGGGGG | 1.02 ± 0.054
TTCCGGGGTA | 1.02 ± 0.032
TTCCGTTTTA | 1.15 ± 0.17
TTCCTCCTTC | 1.83 ± 0.89
TTCCTCGTTA | 1.39 ± 0.029
TTCCTGATGC | 1.04 ± 0.092
TTCCTGTCGT | 1.004 ± 0.0021
TTCCTTATTA | 1.02 ± 0.011
TTCGAAAAAG | 0.9961 ± 0.008
TTCGAAGGGT | 1.09 ± 0.1
TTCGAATGTG | 1.01 ± 0.028
TTCGAATTGT | 0.976 ± 0.037

Sequence | switch fluorescence ratio
TTCGATAGCA | 1.06 ± 0.058
TTCGCGGCTA | 1.07 ± 0.016
TTCGCGTTTT | 1.02 ± 0.04
TTCGGACGT | 1.02 ± 0.013
TTCGGAGAAT | 1.16 ± 0.23
TTCGGATGAG | 0.977 ± 0.041
TTCGGATGGG | 1 ± 0.034
TTCGGCCACG | 1.01 ± 0.036
TTCGGGAACT | 1 ± 0.038
TTCGGGAGTG | 0.985 ± 0.02
TTCGGGATGA | 1 ± 0.056
TTCGGGCGGA | 0.98 ± 0.011
TTCGGGGCAT | 1.05 ± 0.097
TTCGGGGCCA | 0.991 ± 0.013
TTCGGGGGT | 0.983 ± 0.024
TTCGGGGGTG | 1.01 ± 0.031
TTCGGGTCCG | 0.988 ± 0.067
TTCGGGTTAA | 1.05 ± 0.017
TTCGGTAGTG | 0.9923 ± 0.0083
TTCGGTCCGT | 0.981 ± 0.026
TTCGGTCGTA | 1.01 ± 0.053
TTCGGTGGGA | 1.07 ± 0.02
TTCGGTTAGA | 1.02 ± 0.015
TTCGGTTGGA | 0.984 ± 0.017
TTCGTAACGC | 1.03 ± 0.038

Sequence | switch fluorescence ratio
TTCGTAATGT | 1.036 ± 0.0083
TTCGTAGCAG | 1.23 ± 0.063
TTCGTCATGG | 1.027 ± 0.0075
TTCGTCGGGC | 0.9863 ± 0.0071
TTCGTGACCT | 1.1 ± 0.094
TTCGTGGTTT | 1.032 ± 0.0055
TTCGTTACAG | 0.998 ± 0.027
TTCGTTGAAT | 0.97 ± 0.024
TTCGTTTAAT | 0.9989 ± 0.0017
TTCGTTTACA | 1.01 ± 0.028
TTCGTTTGCT | 0.955 ± 0.035
TTCGTTTTGT | 0.9975 ± 0.0097
TTCGTTTTTT | 0.985 ± 0.047
TTCTAAAGAT | 0.969 ± 0.034
TTCTAAAGGT | 1.02 ± 0.04
TTCTAAGGGA | 1.01 ± 0.023
TTCTAAGGTC | 0.978 ± 0.036
TTCTAATCCG | 1.036 ± 0.0091
TTCTACGGGC | 1.11 ± 0.025
TTCTACTAGT | 0.98 ± 0.024
TTCTATAATT | 1.03 ± 0.02
TTCTATATTT | 1.01 ± 0.055
TTCTATGGAA | 1.01 ± 0.016
TTCTATGGTG | 1 ± 0.04
TTCTATTTGA | 1.0138 ± 0.00028

Sequence | switch fluorescence ratio
TTCTCAATGT | 1.08 ± 0.14
TTCTCAGGGG | 1.12 ± 0.038
TTCTCAGTTT | 1.15 ± 0.22
TTCTCATTGG | 0.9893 ± 0.0039
TTCTCGGCCC | 1.11 ± 0.019
TTCTCGTTCT | 0.996 ± 0.045
TTCTGAAACA | 0.969 ± 0.036
TTCTGAGAAT | 1.042 ± 0.0044
TTCTGCGTAT | 1.01 ± 0.036
TTCTGCTATC | 1.79 ± 0.12
TTCTGGAAAT | 0.994 ± 0.016
TTCTGGCAAT | 2.97 ± 0.14
TTCTGTACGG | 1.02 ± 0.014
TTCTGTAGCG | 1.06 ± 0.13
TTCTGTGTGG | 0.981 ± 0.011
TTCTGTTATC | 1.023 ± 0.0087
TTCTGTTTTA | 1.05 ± 0.021
TTCTTAGATG | 1.016 ± 0.0088
TTCTTAGCCG | 1.0545 ± 0.00031
TTCTTAGGGA | 0.9863 ± 0.0054
TTCTTCGACA | 1.08 ± 0.034
TTCTTGGAAT | 0.969 ± 0.049
TTCTTGGGAT | 1 ± 0.019
TTCTTGTCGG | 0.984 ± 0.027
TTCTTTACGG | 0.986 ± 0.026

Sequence | switch fluorescence ratio
TTCTTTAGGG | 1.16 ± 0.26
TTCTTTATGT | 0.999 ± 0.021
TTCTTTGGAT | 1.03 ± 0.028
TTCTTTGGCT | 0.977 ± 0.018
TTCTTTTACT | 1.01 ± 0.023
TTCTTTTTAG | 0.9793 ± 0.0051
TTGAAAAATG | 1.03 ± 0.028
TTGAAACAGA | 0.985 ± 0.038
TTGAAAGGGG | 0.996 ± 0.083
TTGAAAGTTC | 1 ± 0.077
TTGAAATAAT | 1.1 ± 0.14
TTGAAGAAAC | 1.04 ± 0.018
TTGAAGCAAA | 1.44 ± 0.37
TTGAAGGAGA | 1.01 ± 0.021
TTGAAGGCTT | 0.997 ± 0.013
TTGAAGTAGC | 1.01 ± 0.044
TTGAATAAGA | 1 ± 0.071
TTGAATCAAG | 1.01 ± 0.041
TTGAATCCAT | 1.01 ± 0.019
TTGAATTAAC | 1.03 ± 0.06
TTGAATTCGG | 0.9841 ± 0.0039
TTGAATTTGG | 0.9794 ± 0.0085
TTGAATTTTC | 1.02 ± 0.061
TTGACAGCGA | 1.22 ± 0.061
TTGACAGGCA | 0.968 ± 0.012
